17 molecules from patent US20250101135A1 (Hoffmann-La Roche, published 2025) can be followed below.

Assay [1] deals with T1, monomeric human CD19 antigen Fc(kih) fusion molecule (human, UniProt P0DOX5 223-449 = IgG part).
T1 construct: also called monomeric CD19-Fc; human CD19-Fc(kih)
In words: SPR ProteOn XPR36, IgG from HEK supernatant captured via anti-human Fab, monomeric CD19-Fc analyte, 1:1 Langmuir.

Assay [2] addresses T1, monomeric human CD19 antigen Fc(kih) …. In words: SPR ProteOn XPR36, Fab from bacterial supernatant captured via anti-human Fab, monomeric CD19-Fc analyte.
In a further assay the target is T2, cyCD19 ECD (cynomolgus).
T2 construct: extracellular domain; also called cynomolgus CD19
In words: binding to CD19 ECD, assay not described.

The target of assay [3] is T3, mouse 4-1BB on activated mouse splenocytes (mouse, UniProt P20334 24-256).
T3 construct: whole, on cells; also called murine 4-1BB
T3 sequence (P20334 24-256): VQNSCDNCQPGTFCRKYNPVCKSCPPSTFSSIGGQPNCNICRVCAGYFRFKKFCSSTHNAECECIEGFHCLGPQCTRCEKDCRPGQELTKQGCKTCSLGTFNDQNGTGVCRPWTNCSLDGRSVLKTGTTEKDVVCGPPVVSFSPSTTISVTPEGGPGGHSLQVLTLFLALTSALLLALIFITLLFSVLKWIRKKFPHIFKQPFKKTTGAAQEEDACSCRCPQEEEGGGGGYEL
In words: flow cytometry on activated mouse splenocytes, 4-1BB+ CD4+ T cells.

The target of assay [4] is T4, human fibroblast activation protein (FAP) on cells (human, UniProt Q12884 1-760).
T4 construct: also called human FAP; huFAP
In words: flow cytometry on FAP+ WM-266-4 cells. In general terms: In flow cytometry, cells or beads pass a laser one at a time.

The target in assay [5] is T4, human fibroblast activation protein …. In words: flow cytometry on FAP+ MV-3 cells.
For assay [6], the target named is T3, mouse 4-1BB on activated mouse …. Description: flow cytometry on activated mouse splenocytes, 4-1BB+ CD8+ T cells.

Numbering of substitutions follows the chain as printed.

B1: anti-CD19 clone 8B8-5D08 in P329GLALA human IgG1 format (antibody, V domains shown)
VH: QVQLVQSGAEVKKPGASVKVSCKASGYTFTDYIMHWVRQAPGQGLEWMGYINPYNDGSKYTEKFQGRVTMTSDTSISTAYMELSRLRSDDTAVYYCARGTYYYGSELFDYWGQGTTVTVSS
VL: DIVMTQTPLSLSVTPGQPASISCKSSQSLETSTGNTYLNWYLQKPGQSPQLLIYRVSKRFSGVPDRFSGSGSGTDFTLKISRVEAEDVGVYYCLQLTHEPYTFGQGTKLEIKR
In general, Kd refers to the equilibrium constant for the complex coming apart. A higher Kd goes with weaker binding. As a reminder, the koff is the rate constant with which the complex falls apart. Read a high koff as fast dissociation. As usually defined, the kon is the rate constant with which the complex forms. The low end stands for slower complex formation, the high end for faster complex formation. In assay [1], B1 yielded a Kd of 951 pM, a koff of 8.44e-05 s⁻¹ and a kon of 88800 M⁻¹ s⁻¹.

B2: parental anti-CD19 clone 8B8, Fab in bacterial supernatant (Fab, V domains shown)
VH: B1 VH with E106A
VL: DIVMTQTPLSLSVTPGQPASISCKSSQSLENPNGNTYLNWYLQKPGQSPQLLIYRVSKRFSGVPDRFSGSGSGTDFTLKISRVEAEDVGVYYCLQLTHVPYTFGQGTKLEIK
notes: conflicting; also called Parental 8B8; parental humanized clone 8B8
With B2, in assay [2], the koff is 0.000301 s⁻¹.

B3: wild-type humanized anti-human CD19 antibody (var.0) (antibody, V domains shown)
VH: B1 VH with Q65N, R67K, V68A, E106A
VL: B2 VL with P32S
notes: humanized 8B8; also called variant 0; wt
In general, EC50 refers to the concentration at which the effect is half-maximal. A lower EC50 goes with an effect from little substance. Turning to B3, the EC50 in the assay with cyCD19 ECD came out at 0.313 µg/mL.

B4: anti-CD19 clone 8B8-5H09 in P329GLALA human IgG1 format (antibody, V domains shown)
VH: B1 VH with E106A
VL: B1 VL with T31S, T97I, H98D, E99Y, Y101V
For the molecule B4, in assay [1], the Kd was found to be 189 pM, the koff was 1.5e-05 s⁻¹ and the kon is 79100 M⁻¹ s⁻¹.

B5: anti-CD19 clone 8B8-2B11, Fab in bacterial supernatant (Fab, V domains shown)
VH: B1 VH with S105P, E106Q
VL: B2 VL with N31T, P32S, N33T, N35T, T97L, H98E, V99D
In assay [2], B5 came in with a koff of 4.37e-06 s⁻¹.

B6: anti-CD19 clone 8B8-2B11 in P329GLALA human IgG1 format (antibody, V domains shown)
VH: B1 VH with S105P, E106Q
VL: B1 VL with N35T, T97L, H98E, E99D
Take B6: in assay [1], binding was characterised by a dissociation constant (Kd) of 495 pM, the koff came out at 3.14e-05 s⁻¹ and the association rate constant (kon) is 63400 M⁻¹ s⁻¹.

B7: anti-CD19 clone 8B8-5A07 in P329GLALA human IgG1 format (antibody, V domains shown)
VH: B1 VH with E106A
VL: B1 VL with L96P, T97G, E99Y, Y101G
Regarding B7, in assay [1], binding was characterised by a dissociation constant (Kd) of 440 pM, the off-rate (koff) was determined as 3.07e-05 s⁻¹ and the kon amounted to 69800 M⁻¹ s⁻¹.

B8: anti-CD19 clone 8B8-2B03 in P329GLALA human IgG1 format (antibody, V domains shown)
VH: B1 VH with M34T, S105P, E106D
VL: B1 VL with E99V
notes: light chain holds an X
In assay [1], B8 yielded a Kd of 831 pM, a koff of 5e-05 s⁻¹ and a kon of 60200 M⁻¹ s⁻¹.

B9: anti-CD19 clone 8B8-2B03, Fab in bacterial supernatant (Fab, V domains shown)
VH: B1 VH with M34T, S105P, E106D
VL: B2 VL with N31T, P32S, N33T
notes: printed VL holds an X
The molecule B9 had a koff in assay [2] of 3.24e-05 s⁻¹.

B10: anti-CD19 clone 8B8-7H07 in P329GLALA human IgG1 format (antibody, V domains shown)
VH: B1 VH
VL: B1 VL with L96A, E99I
On to B10, for which, in assay [1], the Kd turned out to be 747 pM, the koff worked out at 5.57e-05 s⁻¹ and the kon was determined as 74500 M⁻¹ s⁻¹.

B11: anti-CD19 clone 8B8-5B08 in P329GLALA human IgG1 format (antibody, V domains shown)
VH: B1 VH with S105P, E106Q
VL: B1 VL with T97D, H98S, E99Y, Y101N
As for B11, in assay [1], the Kd was 772 pM, the koff stood at 5.26e-05 s⁻¹ and the kon came out at 68100 M⁻¹ s⁻¹.

B12: anti-CD19 clone 8B8-5D08, Fab in bacterial supernatant (Fab, V domains shown)
VH: B1 VH
VL: B2 VL with N31T, P32S, N33T, V99E
With B12, in assay [2], the koff came out at 0.000195 s⁻¹.

B13: anti-CD19 clone 8B8-5H09, Fab in bacterial supernatant (Fab, V domains shown)
VH: B1 VH with E106A
VL: B2 VL with N31S, P32S, N33T, T97I, H98D, V99Y, Y101V
In assay [2], B13 came in with a koff of 0.000258 s⁻¹.

B14: anti-CD19 clone 8B8-7H07, Fab in bacterial supernatant (Fab, V domains shown)
VH: B1 VH
VL: B2 VL with N31T, P32S, N33T, L96A, V99I
For B14, the koff in assay [2] was found to be 5.75e-05 s⁻¹.

B15: FAP-targeted murine 4-1BB ligand trimer-containing Fc fusion antigen binding molecule Construct M.1 (Fc fusion)
chain 1: RTEPRPALTITTSPNLGTRENNADQVTPVSHIGSPNTTQQGSPVFAKLLAKNQASLSNTTLNWHSQDGAGSSYLSQGLRYEEDKKELVVDSPGLYYVFLELKLSPTFTNTGHKVQGWVSLVLQAKPQVDDFDNLALTVELFPSSMENKLVDRSWSQLLLLKAGHRLSVGLRAYLHGAQDAYRDWELSYPNTTSFGLFLVKPDNPWEGGGGSGGGGSRTEPRPALTITTSPNLGTRENNADQVTPVSHIGSPNTTQQGSPVFAKLLAKNQASLSNTTLNWHSQDGAGSSYLSQGLRYEEDKKELVVDSPGLYYVFLELKLSPTFTNTGHKVQGWVSLVLQAKPQVDDFDNLALTVELFPSSMENKLVDRSWSQLLLLKAGHRLSVGLRAYLHGAQDAYRDWELSYPNTTSFGLFLVKPDNPWEGGGGSGGGGSRADAAPTVSIFPPSSEQLTSGGASVVCFLNNFYPKDINVKWKIDGSERQNGVLNSWTDQDSKDSTYSMSSTLTLTKDEYERHNSYTCEATHKTSTSPIVKSFNRNECVPRDCGCKPCICTVPEVSSVFIFPPKPKDVLTITLTPKVTCVVVAISKDDPEVQFSWFVDDVEVHTAQTKPREEQINSTFRSVSELPIMHQDWLNGKEFKCRVNSAAFGAPIEKTISKTKGRPKAPQVYTIPPPKEQMAKDKVSLTCMITNFFPEDITVEWQWNGQPAENYDNTQPIMDTDGSYFVYSDLNVQKSNWEAGNTFTCSVLHEGLHNHHTEKSLSHSPGK
chain 2: RTEPRPALTITTSPNLGTRENNADQVTPVSHIGSPNTTQQGSPVFAKLLAKNQASLSNTTLNWHSQDGAGSSYLSQGLRYEEDKKELVVDSPGLYYVFLELKLSPTFTNTGHKVQGWVSLVLQAKPQVDDFDNLALTVELFPSSMENKLVDRSWSQLLLLKAGHRLSVGLRAYLHGAQDAYRDWELSYPNTTSFGLFLVKPDNPWEGGGGSGGGGSAKTTPPSVYPLAPGSAAQTNSMVTLGCLVKGYFPEPVTVTWNSGSLSSGVHTFPAVLQSDLYTLSSSVTVPSSTWPSQTVTCNVAHPASSTKVDKKIVPRDC
heavy: EVQLLESGGGLVQPGGSLRLSCAASGFTFSSHAMSWVRQAPGKGLEWVSAIWASGEQYYADSVKGRFTISRDNSKNTLYLQMNSLRAEDTAVYYCAKGWLGNFDYWGQGTLVTVSSAKTTPPSVYPLAPGSAAQTNSMVTLGCLVKGYFPEPVTVTWNSGSLSSGVHTFPAVLQSDLYTLSSSVTVPSSTWPSQTVTCNVAHPASSTKVDKKIVPRDCGCKPCICTVPEVSSVFIFPPKPKDVLTITLTPKVTCVVVAISKDDPEVQFSWFVDDVEVHTAQTKPREEQINSTFRSVSELPIMHQDWLNGKEFKCRVNSAAFGAPIEKTISKTKGRPKAPQVYTIPPPKKQMAKDKVSLTCMITNFFPEDITVEWQWNGQPAENYKNTQPIMKTDGSYFVYSKLNVQKSNWEAGNTFTCSVLHEGLHNHHTEKSLSHSPGK
light: EIVLTQSPGTLSLSPGERATLSCRASQSVSRSYLAWYQQKPGQAPRLLIIGASTRATGIPDRFSGSGSGTDFTLTISRLEPEDFAVYYCQQGQVIPPTFGQGTKVEIKRADAAPTVSIFPPSSEQLTSGGASVVCFLNNFYPKDINVKWKIDGSERQNGVLNSWTDQDSKDSTYSMSSTLTLTKDEYERHNSYTCEATHKTSTSPIVKSFNRNEC
notes: murine IgG1 DD/KK, DAPG; anti-FAP 28H1
With B15, the EC50 in assay [3] worked out at 520 pM; in assay [4], 5140 pM; in assay [5], 7260 pM; in assay [6], 870 pM.

B16: FAP-targeted murine 4-1BB ligand trimer-containing Fc fusion antigen binding molecule Construct M.2 (Fc fusion)
chain 1: B15 chain 1 with S34C, S143C, S250C, S359C
chain 2: B15 chain 2 with S34C, S143C
heavy: B15 heavy
light: B15 light
B16: the EC50 in assay [3] amounted to 420 pM; in assay [4], 5630 pM; in assay [5], 6900 pM; in assay [6], 540 pM.

B17: anti-CD19 clone 8B8 (parental) in P329GLALA human IgG1 format (antibody, V domains shown)
VH: EVQLQQSGPELVKPGASVKMACKASGYTFTDYIMHWVKQKTGQGLEWIGYINPYNDGSKYTEKFNGKATLTSDKSSITAYMELSSLTSEDSAVYYCARGTYYYGSALFDYWGQGTTLTVSS
VL: DAVMTQTPLSLPVSLGDQASISCRSSQSLENSNGNTYLNWYLQKPGQSPQLLIYRVSKRFSGVLDRFSGSGSGTDFTLKISRVEAEDLGVYFCLQLTHVPYTFGGGTKLEIKR
notes: also called Parental 8B8
For B17, in assay [1], the Kd is 2360 pM, the koff worked out at 0.000134 s⁻¹ and the kon turned out to be 56600 M⁻¹ s⁻¹.
